Measurements reported in US11780927B2, “Anti-CD40 antibodies for use in prevention of graft rejection” (NOVARTIS AG, priority 2018, dated 2023).

Tests used:
[1] = test system: human PBMCs; assay: rCD154 and IL-4-mediated proliferation (3H-TdR), human PBMCs; assay type: cell-based
[2] = 13-week GLP toxicity study
[3] = test system: human whole blood, PBMCs, monocyte-derived DCs, HUVECs; assay: Stimulatory potential in vitro (proliferation, CD69, cytokines); assay type: cell-based
Procedure: The ability of CFZ533 to stimulate activation of human leukocytes was assessed using proliferation and upregulation of the activation molecule CD69 on B cells in whole blood. […] Human whole blood from multiple donors (n=13) were incubated with a dose titration of CFZ533, and proliferation (^3H-TdR) was assessed after three days of culture. ii. Human PBMCs from multiple donors (n=26) were incubated with a dose titration of CFZ533, and proliferation (^3H-TdR) was assessed after three days of culture. For both graphs, data is presented as mean and SD of normalized cpm as a function of log-transformed CFZ533 concentration (rCD154+IL-4=100; dotted lines, cells plus media=0; dashed lines). […] Human PBMCs were stimulated for 3 days with a dose titration of CFZ533 in the presence of IL-4 (i) or anti-IgM F(ab′)2. (ii). The mean and SD of 3H-TdR (cpm) is shown as a function of log-transformed CFZ533 concentration. In FIG. 6C it is shown how human whole blood (41 donors) was cultured overnight with no stimuli, CFZ533, isotype control or rCD154 and CD69 expression on B cells was assessed by FACS. Each dot represents data from a single donor with mean % CD69 values indicated by a horizontal red line.

[4] = test system: life-supporting kidney allografts; assay: NHP model of kidney allograft rejection; assay type: in vivo, cynomolgus monkeys (Macaca fascicularis)
[5] = cynomolgus monkey, in vivo
[6] = target: recombinant human CD40 (Homo sapiens, UniProt P25942); assay: Surface plasmon resonance analysis of affinity for CD40; assay type: binding
Procedure: The binding analyses of recombinant CFZ533 were performed at 25° C. with HBS−EP+ as running buffer. A typical binding analysis cycle consisted of three steps: (i) capture of the antibody via ProteinA immobilized on the chip surface, (ii) binding of CD40 antigen to the captured anti-CD40 antibody, and (iii) regeneration of the ProteinA surface. To determine the kinetic rate constants of the antigen-antibody binding interactions, binding data were processed, double referenced with responses from blank injections. The binding curves were fitted locally using the 1:1 interaction model of the Biacore T100 Evaluation software to determine kinetic rate constants. The value for the equilibrium dissociation constant (KD) was calculated as the ratio of the rate constants kd/ka. All binding measurements were performed in two independent experiments.

[7] = Single dose PK/PD study; assay type: in vivo, cynomolgus monkeys
Procedure: Single dose pharmacokinetic/pharmacodynamic (PK/PD) studies utilized biologics-treatment naive cynomolgus monkeys (Macaca fascicularis) between 7.5-8.5 years old (6.5±2.6 kg) and captive-bred from Philippines (Siconbrec, Makati City, Philippines). Animal handling, care, drug treatments and blood sampling are performed according to the Swiss Federal Law for animal protection (animal licenses BS #1900, BS #1495). For the recall immunization experiments, we utilized animals from a toxicology study conducted at Covance Laboratories GmbH, Muenster, Germany, (manuscript in preparation). The study was performed according to an authorized study protocol and local standard operating procedures in strict compliance with national legal regulations on animal welfare law and accepted animal welfare standards.
In the PK study, CFZ533 was administered to three animals at calculated single doses of 16.2 (5532), 18.5 (5531) and 20 (5530) mg/kg. […] KLH specific IgM/IgG titers were determined with sandwich ELISA using cynomolgus monkey anti-KLH IgM/IgG reference serum as standard. […]
FIG. 9A. Serum concentrations of CFZ533 in three cynomolgus monkeys after single dose administration at calculated doses of 16.2 (5532), 18.5 (5531) and 20 (5530) mg/kg intravenously. […]

[8] = test system: human B cell line RI-1; assay: Internalization by image flow cytometry; assay type: cell-based; details: 3 hours at 37° C.
Procedure: Internalization of fluorescently tagged CFZ533 and rCD154 was assessed in vitro using the human B cell line RI-1 (Th'ng et al, 1987). CD40 dependence of CFZ533 internalization was assessed using a CD40 knockout RI-1 cell line. Internalization was assessed using an Amnis® image flow cytometer (Merck KHaA, Darnstadt) according to the manufacturer's instructions and data analyzed using ImageStream®^X software.
FIG. 8B. Relative internalization erode of CFZ533 and rCD154 under permissive conditions (non-permissive erode values subtracted). Each dot represents data from an individual experiment and the population mean is indicated as a horizontal red line. FIG. 8C. Representative images of individual CD40 expressing or CD40 knock-out RI-1 cells cultured with Alexa488 labeled CFZ533 for 3 hours at 37° C. In all experiments, cells were co-stained with AlexaFlour 647 labeled CD45 to demark the cell membrane.

[9] = test system: platelet aggregation; assay: Platelet function and blood hemostasis; assay type: cell-based
[10] = 26-week chronic toxicity study

recombinant human CD40, sequence (P25942 21-277): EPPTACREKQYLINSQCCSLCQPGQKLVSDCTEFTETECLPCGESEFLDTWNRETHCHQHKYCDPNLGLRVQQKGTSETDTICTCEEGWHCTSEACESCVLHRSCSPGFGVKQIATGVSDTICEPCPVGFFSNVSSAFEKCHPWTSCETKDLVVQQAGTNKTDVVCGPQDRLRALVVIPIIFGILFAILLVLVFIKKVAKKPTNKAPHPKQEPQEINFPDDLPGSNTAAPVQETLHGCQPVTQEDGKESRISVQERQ

CFZ533: human anti-CD40 IgG1 monoclonal antibody with Fc-silencing N297A mutation; heavy chain SEQ ID NO: 9, light chain SEQ ID NO: 10
Effect of delayed addition on rCD154-induced cellular activation ([1]; added up to 6 hours after start of cultures containing rCD154): complete inhibition of cellular activation with minimal loss of potency
Inhibition of rCD154-induced proliferation (IC50 PBMCs) ([1]; human PBMCs): 0.02 µg/mL
IC50 ([1]; human PBMCs, read-out: IC50, rCD154-induced proliferation): 120 pM
Increased lymphoid cellularity ([2]; weekly dosing at 10, 50 and 150 mg/kg): 5/22
No Observed Adverse Effect Level (NOAEL) ([2]; weekly dosing, rhesus monkey): 10 mg/kg
Induction of thymidine incorporation (proliferation) ([3]; human whole blood (1:10 dilution) or PBMCs, three days): unable to induce thymidine incorporation
Induction of CD69 upregulation on B cells ([3]; human whole blood, overnight): unable to induce upregulation of CD69
Induction of cytokine production ([3]; monocyte-derived DCs or HUVECs): unable to induce cytokine production
Days after Transplantation (median days) ([4]; CFZ533 30 mg/kg i.v. monotherapy, n 5): 95 days
Survival of kidney allografts and graft morphology ([4]; combination with CsA (20 mg/kg p.o.) or monotherapy): demonstrated efficacy in increasing the survival of kidney allografts in NHPs
average concentration at steady state (Cav,ss) ([5]; 150 mg/kg): 8300 µg/mL
systemic exposure (AUC, steady state conditions) over a 1-month period ([5]; 150 mg/kg): 232400 µg·days/mL
Cmax,ss (mean, all animals) ([5]; sc, 50 mg/kg): 3235 µg/mL
ka [1/Ms] ([6]; SPR, 25° C.): 3.13 ± 0.73 × 10^5 1/Ms
kd [1/s] ([6]; SPR, 25° C.): 0.93 ± 0.14 × 10^−4 1/s
Kd ([6]; surface plasmon resonance): 300 pM
inflection point in PK profiles (drop of CD40 saturation) ([7]; serum concentration-time profiles, non-human primates): 10 to 20 µg/mL
Depletion of peripheral blood B cells ([7]; single intravenous dose 16.2, 18.5 and 20 mg/kg): did not deplete peripheral blood B cells
Internalization by RI-1 B cells [8]: internalized
Platelet aggregation responses [9]: does not induce platelet aggregation responses
serum concentration with incomplete or no suppression of GCs ([10]; 1 mg/kg/week subcutaneously, 26 weeks): below 20 μg/mL
NOAEL ([10]; 26-week, cynomolgus monkeys): 150 mg/kg
Cmax,ss at NOAEL versus expected human Cmax ([10]; proposed intravenous regimen): 24 fold
